# Laboratory results reported in patent US20140135474A1 (PROTELICA, published 2014).
# T1: VEGF (UniProt P15692-9 27-147, limits assumed)
# T1 construct: Only the selection names the 121 isoform; also called VEGF(121)
# T1 sequence (looked up): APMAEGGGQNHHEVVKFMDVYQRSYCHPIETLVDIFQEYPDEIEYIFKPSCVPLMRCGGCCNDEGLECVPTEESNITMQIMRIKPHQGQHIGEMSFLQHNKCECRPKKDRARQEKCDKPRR
# T2: HMGB1 (UniProt P09429 1-215, limits assumed)
# T2 construct: also called biotinylated HMGB1
# T2 sequence (looked up): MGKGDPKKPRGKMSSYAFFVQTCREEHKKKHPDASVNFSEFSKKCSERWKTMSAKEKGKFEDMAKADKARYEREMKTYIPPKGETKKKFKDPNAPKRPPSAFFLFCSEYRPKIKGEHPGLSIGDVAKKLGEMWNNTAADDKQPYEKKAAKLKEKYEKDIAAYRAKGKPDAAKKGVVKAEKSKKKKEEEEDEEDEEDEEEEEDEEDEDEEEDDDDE
# How the values were obtained:
# [1] = target: T3, TNF-α (UniProt P01375 77-233, biotinylated); assay: phage ELISA; wells with TNF, control or VEGF
# T3 construct: also called TNF-alpha; biotintylated TNF-α soluble protein
# Protocol: (§1) After the third and fourth rounds of selection, a total of 373 clones were analyzed for TNF-α binding using phage ELISA. Briefly, phage from individual clones was produced by co-infection with M13K07 helper phage in 1 ml cultures in 96-deep well blocks. Phage-containing culture supernatants were then added to microtiter plates coated with the target protein. Following washes with PBS-0.1% Tween-20, bound phage was detected with a mouse anti-M13 antibody horseradish peroxidase conjugate (GE Biosciences) and TMB substrate (Pierce). Positive variants were then screened for binding specificity against VEG-F and nuetravidin plate only.
# [2] = target: T1, VEGF; assay: phage ELISA; wells with TNF, control or VEGF
# Protocol: as §1
# [3] = target: T3, TNF-α; assay: Octet BLI, biotinylated TNF-α on streptavidin tips; lower end of the range
# Protocol: (§2) The target protein was biotintylated TNF-α soluble protein (R&D Systems) and is at a concentration of 0.25 ug/ml for loading onto the streptavidin sensor tips. […] The Octet was run using the manufacturers protocol for Basic Kinetic Assay.
# [4] = target: T3, TNF-α; assay: Octet BLI, biotinylated TNF-α on streptavidin tips; upper end of the range
# Protocol: as §2
# [5] = target: T1, VEGF; assay: ELISA with purified soluble 14FN3 variant, OD450, one concentration (not given)
# [6] = target: T3, TNF-α; assay: Octet BLI, biotinylated TNF-α on streptavidin tips
# Protocol: as §2
# [7] = target: T2, HMGB1; assay: Octet BLI
# [8] = target: T3, TNF-α; assay: ELISA (OD450); wells with HMGB1, TNF or blank
# [9] = target: T2, HMGB1; assay: competition ELISA: biotinylated HMGB1 pre-incubated with R2F8, then bound to immobilized RAGE (blocked ligand-receptor pair HMGB1/RAGE), detected with streptavidin-HRP and TMB
# [10] = target: T3, TNF-α; assay: phage ELISA (OD450); wells with VEGF, TNF alfa or 2%MPBS only
# [11] = target: T1, VEGF; assay: Octet BLI, soluble protein
# [12] = target: T3, TNF-α; assay: phage display selection and ELISA
# [13] = target: T1, VEGF; assay: phage ELISA
# T3 sequence (P01375 77-233 limits assumed): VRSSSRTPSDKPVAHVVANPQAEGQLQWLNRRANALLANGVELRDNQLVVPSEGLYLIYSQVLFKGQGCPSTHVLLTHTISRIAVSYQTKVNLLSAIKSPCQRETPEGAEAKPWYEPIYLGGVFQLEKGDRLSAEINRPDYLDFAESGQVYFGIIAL
binder,measurement,setting,value
TNF-α binder A4A9 (designed binder) NVSPPRRARVTDATETTITISWYPYYDDCGYYISYFQVDAVPANGQTPIQRTIPDSYSSYTITGLQPGTDYKIYLYTLNDADDGHPYSKPVVIDAST,binding result,[1],binds
same,binding result,[2],no binding
"TNF-α binder R41A6 (designed binder, 14FN3 variant; On phage (p3 fusion) in phage ELISA; soluble with 6xHis tag (phagemid also c-myc tag; pET-20b C-terminal hexahistidine) in ELISA and Octet) NVSPPRRARVTDATETTITISWEHSEDDCYSYIYYFQVDAVPANGQTPIQRTISGYETYYTITGLQPGTDYKIYLYTLNSAGFCPPYSKPVVIDAST",Kd,[3],≥ 20 nM
same,Kd,[4],≤ 100 nM
same,binding result,[5],no binding
"A6+Fc (Fc fusion, Expressed in E. coli BL-21(DE3); also called R41A6 Fc fusion protein; pET-20b+TNF A6+Fc #39; not shown: C-terminal hexahistidine tag of pET-20b) NVSPPRRARVTDATETTITISWEHSEDDCYSYIYYFQVDAVPANGQTPIQRTISGYETYYTITGLQPGTDYKIYLYTLNSAGFCPPYSKPVVIDAST",Kd,[6],12 to 25 nM
same,fold improvement of Koff against monomeric A6,[6],2 fold
TNF-α binder R4G4 (designed binder) NVSPPRRARVTDATETTITISWEPSEYDCYYSIYYFQVDAVPANGQTPIQRTIHDSYNYYTITGLQPGTDYKIYLYTLNSAGFCPPYSKPVVIDAST,binding result,[1],binds
same,binding result,[2],no binding
TNF-α binder R4A8 (designed binder) NVSPPRRARVTDATETTITISWYPSEDYCGSSIYGFQVDAVPANGQTPIQRTIHGNETSYTITGLQPGTDYKIYLYTLNSAGFCPPYSKPVVIDAST,binding result,[1],binds
same,binding result,[2],no binding
"P1E8 anti-HMGB1 (designed binder, 14FN3 variant; on phage in phage ELISA, soluble 6xHis-tagged in Octet) NVSPPRRARVTDATETTITISWRAAESAIARFQVDAVPANGQTPIQRTIKRTKHTYTITGLQPGTDYKIYLYTLNDNARSSPVVIDAST",Kd,[7],192 nM
same,koff,[7],0.000325 s⁻¹
same,kon,[7],1690 M⁻¹ s⁻¹
"P2C6 anti-HMGB1 (designed binder, 14FN3 variant; on phage in phage ELISA, soluble 6xHis-tagged in Octet) NVSPPRRARVTDATETTITIRWGVAPSQVIRFQVDAVPANGQTPIQRTIKRSVHAYTITGLQPGTDYKIYLYTLNDNARSSPVVIDAST",Kd,[7],104 nM
same,koff,[7],0.000991 s⁻¹
same,kon,[7],9540 M⁻¹ s⁻¹
"R2D4 anti-HMGB1 (designed binder, 14FN3 variant; on phage in phage ELISA, soluble 6xHis-tagged in Octet) NVSPPRRARVTDATETTITISWGVAESEVTRFQVDAVPANGQTPIQRTIKRSKHAYTITGLQPGTDYKIYLYTLNDNARSSPVVIDAST",binding result,[8],no binding
same,Kd,[7],159 nM
same,koff,[7],0.000206 s⁻¹
same,kon,[7],1300 M⁻¹ s⁻¹
"R2B5 anti-HMGB1 (designed binder, 14FN3 variant; on phage in phage ELISA, soluble 6xHis-tagged in Octet) NVSPPRRARVTDATETTITIRWTVAESKIARFQVDAVPANGQTPIQRTIKRSKHSYTITGLQPGTDYKIYLYTLNDNARSSPVVIDAST",Kd,[7],65.8 nM
same,koff,[7],0.000287 s⁻¹
same,kon,[7],4350 M⁻¹ s⁻¹
"R2G2 anti-HMGB1 (designed binder, 14FN3 variant; on phage in phage ELISA, soluble 6xHis-tagged in Octet) NVSPPRRARVTDATETTITISWRAAESAIARFQVDAVPANGQTPIQRTIKRTKHTYTITGLQPGTDYKIYLYTLNDNARSSPVVIDAST",binding result,[8],no binding
same,Kd,[7],266 nM
same,koff,[7],0.00049 s⁻¹
same,kon,[7],1840 M⁻¹ s⁻¹
"R2E6 anti-HMGB1 (designed binder, 14FN3 variant; on phage in phage ELISA, soluble 6xHis-tagged in Octet) NVSPPRRARVTDATETTITIRWGVAQSQVARFQVDAVPANGQTPIQRTIKRSVHTYTITGLQPGTDYKIYLYTLNDNARSSPVVIDAST",binding result,[8],no binding
same,Kd,[7],189 nM
same,koff,[7],0.000955 s⁻¹
same,kon,[7],5040 M⁻¹ s⁻¹
"R2F8 anti-HMGB1 (designed binder, 14FN3 variant; also called R2F8 HMGB1 FN3) NVSPPRRARVTDATETTITIRWARSASEIARFQVDAVPANGQTPIQRTIKRSANIYTITGLQPGTDYKIYLYTLNDNARSSPVVIDAST",Kd,[7],35.3 nM
same,koff,[7],0.000267 s⁻¹
same,kon,[7],7580 M⁻¹ s⁻¹
same,IC50 (read off the curve),[9],~8 µg/mL
"R1 D4 anti-VEGF (designed binder, 14FN3 variant; on phage in phage ELISA, soluble His-tagged protein in Octet) NVSPPRRARVTDATETTITIPWEVAGGPIISFQVDAVPANGQTPIQRTITPDATGYTITGLQPGTDYKIYLYTLNDNARSSPVVIDAST",binding result,[10],no binding
same,koff,[11],0.00017 s⁻¹
R1 F1 anti-VEGF (designed binder) NVSPPRRARVTDATETTITIPWALAGGPIISFQVDAVPANGQTPIQRTITPDIRGYTITGLQPGTDYKIYLYTLNDNARSSPVVIDAST,binding result,[10],no binding
R1G1 anti-VEGF (designed binder) NVSPPRRARVTDATETTITIRWAGSPGPVDSFQVDAVPANGQTPIQRTIQTSETGYTITGLQPGTDYKIYLYTLNDNARSSPVVIDAST,binding result,[10],no binding
"TNF-α binder R4C5 (designed binder, 14FN3 variant; on phage in phage ELISA, soluble 6xHis-tagged in ELISA; The short label C5 is tied to R4C5 by its name only) NVSPPRRARVTDATETTITISWNSSYCHFYGFQVDAVPANGQTPIQRTISDYEYSYTITGLQPGTDYKIYLYTLNASCYGYHYYKPVVIDAST",binding result,[5],no binding
TNF-α binder R4F7 (designed binder) NVSPPRRARVTDATETTITISWYPYEYDDCYYYIYYFQVDAVPANGQTPIQRTIPDYESYYTITGLQPGTDYKIYLYTLNSYGFCPPSYKPVVIDAST,binding result,[1],binds
same,binding result,[2],no binding
TNF-α binder R3A10 (designed binder) NVSPPRRARVTDATETTITISWYPYYYYCGYHYSYFQVDAVPANGQTPIQRTIYGYYTYYTITGLQPGTDYKIYLYTLNSSDYCYYSYYPVVIDAST,binding result,[12],binds
same,binding result,[13],no binding
"P2F3 anti-HMGB1 (designed binder, 14FN3 variant; on phage in phage ELISA, soluble 6xHis-tagged in Octet) NVSPPRRARVTDATETTITIRWGVPHSFQVDAVPANGQTPIQRTIKRGVRSYTITGLQPGTDYKIYLYTLNDNARSSPVVIDAST",koff,[7],0.000271 s⁻¹
TNF-α binder R4E9 (designed binder) NVSPPRRARVTDATETTITISWESYYYDCCYYIYYFQVDAVPANGQTPIQRTIYYPYTSYTITGLQPGTDYKIYLYTLNSYGYGYHYYKPVVIDAST,binding result,[1],binds
same,binding result,[2],no binding
"TNF-α binder R42C10 (designed binder, 14FN3 variant; on phage in phage ELISA, soluble 6xHis-tagged in ELISA; The short label C10 is tied to R42C10 by its name only) NVSPPRRARVTDATETTITISWYHHEDDCYYHFYYFQVDAVPANGQTPIQRTILHGTYTSYTITGLQPGTDYKIYLYTLNASGFCSHSYKPVVIDAST",binding result,[5],no binding
